From patent US6933368
One block for each molecule: values may come before it.

Target: CD33 antigen (UniProt P20138)
Test: competitive binding against 125I-murine M195 on HL60 cells

Sequence of UniProt P20138 (P20138 18-364 limits assumed): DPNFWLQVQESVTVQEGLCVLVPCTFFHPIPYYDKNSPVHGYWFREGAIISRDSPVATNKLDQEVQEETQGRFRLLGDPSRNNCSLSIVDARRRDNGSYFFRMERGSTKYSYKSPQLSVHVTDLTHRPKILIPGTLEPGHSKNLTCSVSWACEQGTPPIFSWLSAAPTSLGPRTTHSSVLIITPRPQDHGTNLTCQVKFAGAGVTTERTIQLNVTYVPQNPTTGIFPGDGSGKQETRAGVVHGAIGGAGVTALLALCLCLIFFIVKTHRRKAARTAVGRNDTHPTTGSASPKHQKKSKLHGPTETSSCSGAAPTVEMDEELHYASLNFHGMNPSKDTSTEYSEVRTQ

Ka: 2e+09 M⁻¹
Molecule: murine M195 antibody

fold increase in binding affinity against the chimeric antibody: 8 fold
Molecule: aglycosylated chimeric M195 antibody

fold increase in binding affinity against the chimeric (or murine) antibody: 8 fold
B1: humanized M195 antibody (antibody, INN chains, looked up, human IgG1, V domains shown)
VH: QVQLVQSGAEVKKPGSSVKVSCKASGYTFTDYNMHWVRQAPGQGLEWIGYIYPYNGGTGYNQKFKSKATITADESTNTAYMELSSLRSEDTAVYYCARGRPAMDYWGQGTLVTVSS
VL: DIQMTQSPSSLSASVGDRVTITCRASESVDNYGISFMNWFQQKPGKAPKLLIYAASNQGSGVPSRFSGSGSGTDFTLTISSLQPDDFATYYCQQSKEVPWTFGQGTKVEIK
